In the RNAGym collection of RNA variant scans (doi:10.7554/elife.90254):

B1: OR4K15 (parent)
chain: GUUAACGGUCAUAGGCCAUGGAAACUAGGAGCACCAUUUCGCUGCCAGUGAAGAAAUGAACAAAGAAAAUCUGGGCCAGGCAGGCAUCAAAAGAAAUAGUCUUGCGCUCAACCAGAAAGUCUGUAAUCAUUUUAAGGGUA

Variants of: B1
Experiment: self-cleavage, relative activity (ratio to wild type); higher = more cleavage; in vitro, sequencing; the parent is a self-cleaving ribozyme

| Variant | self-cleavage |
| --- | --- |
| GUUAACGGUCAUAGGCCAUGGAAACUAGGAGCACCAUUUCGCUGCCAGCGAAGAAAUGAACAAAGAAAAUCUGGGCCAGGCAGGCAUCAAAAGAAAUAGUCUUGCGCUCAACCAGAUAGUCUGUAAUCAUUUUAAGGGUA [U49C A117U] | 1.08 |
| GUUAACGGUCAUAGGCCAUGGAAACUAGGAGCACCAUUUCGCUGCCAGCGAAGAAAUGAACAAAGAAAAUCUGGGCCAGGCAGGCAUCAAAAGAAAUAGUCUUGCGCUCAACCAGAGAGUCUGUAAUCAUUUUAAGGGUA [U49C A117G] | 1.68 |
| GUUAACGGUCAUAGGCCAUGGAAACUAGGAGCACCAUUUCGCUGCCAGCGAAGAAAUGAACUAAGAAAAUCUGGGCCAGGCAGGCAUCAAAAGAAAUAGUCUUGCGCUCAACCAGAAAGUCUGUAAUCAUUUUAAGGGUA [U49C A62U] | 0.68 |
| GUUAACGGUCAUAGGCCAUGGAAACUAGGAGCACCAUUUCGCUGCCAGCGAAGAAAUGAACAAAGAAAAUCUGGGCCAGGCAGGCAUCAAAAGUAAUAGUCUUGCGCUCAACCAGAAAGUCUGUAAUCAUUUUAAGGGUA [U49C A94U] | 1.36 |
| GUUAACGGUCAUAGGCCAUGGAAACUAGGAGCACCAUUUCGCUGCCAGCGAAGAAAUGAACAAAGAAAAUCUGGGCCAGACAGGCAUCAAAAGAAAUAGUCUUGCGCUCAACCAGAAAGUCUGUAAUCAUUUUAAGGGUA [U49C G80A] | 0.21 |
| GUUAACGGUCAUAGGCCAUGGAAACUAGGAGCACCAUUUCGCUGCCAGCGAAGAAAUGAACAAAGAAAAUCUGGGCCAGGCAGGCAUCAAAAGAAUUAGUCUUGCGCUCAACCAGAAAGUCUGUAAUCAUUUUAAGGGUA [U49C A96U] | 1.92 |
| GUUAACGGUCAUAGGCCAUGGAAACUAGGAGCACCAUUUCGCUGCCAGCGAAGAAAUGAACAAAGAAAAUCUGGGCCAGGCAGGCAUCAAAAGAAGUAGUCUUGCGCUCAACCAGAAAGUCUGUAAUCAUUUUAAGGGUA [U49C A96G] | 1 |
| GUUAACGGUCAUAGGCCAUGGAAACUAGGAGCACCAUUUCGCUGCCAGCGAUGAAAUGAACAAAGAAAAUCUGGGCCAGGCAGGCAUCAAAAGAAAUAGUCUUGCGCUCAACCAGAAAGUCUGUAAUCAUUUUAAGGGUA [U49C A52U] | 1.38 |
| GUUAACGGUCAUAGGCCAUGGAAACUAGGAGCACCAUUUCGCUGCCAGCGAAGAAAUGAACAAAGAAAAUCUGGGCCAGGCAGGCAUCAAAAGAAAUAGUCUUGCGCUCAACCAGAAAGUCUGUGAUCAUUUUAAGGGUA [U49C A125G] | 0.7 |
| GUUAACGGUCAUAGGCCAUGGAAACUAGGAGCACCAUUUCGCUGCCAGCGAAGAAAUGAACAAAGAAAAUCUGGGCCAGGCAGGCAUCAAAAGAAAUAGUCUUGCGCUCAACCAGAAAGUCUGUAAUCUUUUUAAGGGUA [U49C A129U] | 0.92 |
| GUUAACGGUCAUAGGCCAUGGAAACUAGGAGCACCAUUUCGCUGCCAGCGAAGAAAUGAACAAAGAAAAUCUGGGCCAGGCAGGCCUCAAAAGAAAUAGUCUUGCGCUCAACCAGAAAGUCUGUAAUCAUUUUAAGGGUA [U49C A86C] | 0.78 |
| GUUAACGGUCAUAGGCCAUGGAAACUAGGAGCACCAUUUCGCUGCCAGCGAAGAAAUGAACAAAGAAAAUCUGGGCCCGGCAGGCAUCAAAAGAAAUAGUCUUGCGCUCAACCAGAAAGUCUGUAAUCAUUUUAAGGGUA [U49C A78C] | 0.43 |
| GUUAACGGUCAUAGGCCAUGGAAACUAGGAGCACCAUUUCGCUGCCAGCGAAGAAAUGAACAAAGAAAAUCUGGGCCGGGCAGGCAUCAAAAGAAAUAGUCUUGCGCUCAACCAGAAAGUCUGUAAUCAUUUUAAGGGUA [U49C A78G] | 0.2 |
| GUUAACGGUCAUAGGCCAUGGAAACUAGGAGCACCAUUUCGCUGCCAGCGAAGAAAUGAACAAAGAAAAUCUGGGCCUGGCAGGCAUCAAAAGAAAUAGUCUUGCGCUCAACCAGAAAGUCUGUAAUCAUUUUAAGGGUA [U49C A78U] | 0.37 |
| GUUAACGGUCAUAGGCCAUGGAAACUAGGAGCACCAUUUCGCUGCCAGCGAAGAAAUGAACAAAGAAAAUCUGGGCCAGGCAGGCAUCAAAAGAAAUAGUCUUGCGCUCGACCAGAAAGUCUGUAAUCAUUUUAAGGGUA [U49C A110G] | 0.12 |
| GUUAACGGUCAUAGGCCAUGGAAACUAGGAGCACCAUUUCGCUGCCAGCGAAGAAAUGAACAAAGAAAAUCUGGGCCAGGCAGGCAUCAAAAGAAAUAGUCUUGCGCUCAACCAGGAAGUCUGUAAUCAUUUUAAGGGUA [U49C A116G] | 0.82 |
| GUUAACGGUCAUAGGCCAUGGAAACUAGGAGCACCAUUUCGCUGCCAGAGAAGAAAUGAACAAAGAAAAUCUGGGCCAGGCAGGCAUCAAAAGAAAUAGUCUUGCGCUCAACCAGAAAGUCUGUAAUCAUUCUAAGGGUA [U49A U132C] | 1.09 |
| GUUAACGGUCAUAGGCCAUGGAAACUAGGAGCACCAUUUCGCUGCCAGCGAAGAAAUGAACAAAGUAAAUCUGGGCCAGGCAGGCAUCAAAAGAAAUAGUCUUGCGCUCAACCAGAAAGUCUGUAAUCAUUUUAAGGGUA [U49C A66U] | 1.39 |
| GUUAACGGUCAUAGGCCAUGGAAACUAGGAGCACCAUUUCGCUGCCAGCGAAGAAAUGAACAAAGAAAGUCUGGGCCAGGCAGGCAUCAAAAGAAAUAGUCUUGCGCUCAACCAGAAAGUCUGUAAUCAUUUUAAGGGUA [U49C A69G] | 1.2 |
| GUUAACGGUCAUAGGCCAUGGAAACUAGGAGCACCAUUUCGCUGCCAGCGAAGAAAUGAACAAAGAAAUUCUGGGCCAGGCAGGCAUCAAAAGAAAUAGUCUUGCGCUCAACCAGAAAGUCUGUAAUCAUUUUAAGGGUA [U49C A69U] | 2 |
| GUUAACGGUCAUAGGCCAUGGAAACUAGGAGCACCAUUUCGCUGCCAGCGAAGAAAUGAACAAAGAAAAUCUGGGCCAGGCAGGCAUCAAAAGAAAUAGUCUUGCGCUCAACCUGAAAGUCUGUAAUCAUUUUAAGGGUA [U49C A114U] | 0.12 |

| Variant | self-cleavage |
| --- | --- |
| GUUAACGGUCAUAGGCCAUGGAAACUAGGAGCACCAUUUCGCUGCCAGCGAAGAAAUGAACAAAGAAAAUCUGGGCUAGGCAGGCAUCAAAAGAAAUAGUCUUGCGCUCAACCAGAAAGUCUGUAAUCAUUUUAAGGGUA [U49C C77U] | 2.23 |
| GUUAACGGUCAUAGGCCAUGGAAACUAGGAGCACCAUUUCGCUGCCAGCGAAGAAAUGAACAAAGAAAAUCUGGGCCAGGCAGGCAUCAAAAGAAAUCGUCUUGCGCUCAACCAGAAAGUCUGUAAUCAUUUUAAGGGUA [U49C A98C] | 1.84 |
| GUUAACGGUCAUAGGCCAUGGAAACUAGGAGCACCAUUUCGCUGCCAGCGAAGAAAUGAACAAAGAAAAUCUGGGCCAGGCAGGCAUCAAAAGAAAUGGUCUUGCGCUCAACCAGAAAGUCUGUAAUCAUUUUAAGGGUA [U49C A98G] | 0.48 |
| GUUAACGGUCAUAGGCCAUGGAAACUAGGAGCACCAUUUCGCUGCCAGCGAAGAAAUGAACAAAGAAAAUCUGGGCCAGGCAGGCAUCAAAAGAAAUUGUCUUGCGCUCAACCAGAAAGUCUGUAAUCAUUUUAAGGGUA [U49C A98U] | 2.55 |
| GUUAACGGUCAUAGGCCAUGGAAACUAGGAGCACCAUUUCGCUGCCAGCGAAGAAAUGAACAAAGAAAAUCUGGGCCAGGCAGGCAUCAAUAGAAAUAGUCUUGCGCUCAACCAGAAAGUCUGUAAUCAUUUUAAGGGUA [U49C A91U] | 1.68 |
| GUUAACGGUCAUAGGCCAUGGAAACUAGGAGCACCAUUUCGCUGCCAGCGAAGAAAUGAACAAAGAAAAUCUGGGCCAGGCAGGCAUCAAGAGAAAUAGUCUUGCGCUCAACCAGAAAGUCUGUAAUCAUUUUAAGGGUA [U49C A91G] | 0.77 |
| GUUAACGGUCAUAGGCCAUGGAAACUAGGAGCACCAUUUCGCUGCCAGCGAAGGAAUGAACAAAGAAAAUCUGGGCCAGGCAGGCAUCAAAAGAAAUAGUCUUGCGCUCAACCAGAAAGUCUGUAAUCAUUUUAAGGGUA [U49C A54G] | 1.19 |
| GUUAACGGUCAUAGGCCAUGGAAACUAGGAGCACCAUUUCGCUGCCAGCGAAGUAAUGAACAAAGAAAAUCUGGGCCAGGCAGGCAUCAAAAGAAAUAGUCUUGCGCUCAACCAGAAAGUCUGUAAUCAUUUUAAGGGUA [U49C A54U] | 0.94 |
| GUUAACGGUCAUAGGCCAUGGAAACUAGGAGCACCAUUUCGCUGCCAGCGAAGAAAUGAACAAAGAAAAUCUGGGCCAGGCAGGCAUCUAAAGAAAUAGUCUUGCGCUCAACCAGAAAGUCUGUAAUCAUUUUAAGGGUA [U49C A89U] | 2.12 |
| GUUAACGGUCAUAGGCCAUGGAAACUAGGAGCACCAUUUCGCUGCCAGCGAAGAAAUGAACAAAGAAAAUCUGGGCCAGGCAGGCAUCAAAAGAAAUAGUCUUGCGCUCAACCAGAAAGUCUGUAAUCAUUUUACGGGUA [U49C A135C] | 0.89 |
| GUUAACGGUCAUAGGCCAUGGAAACUAGGAGCACCAUUUCGCUGCCAGCGAAGAAAUGAACAAAGAAAAUCUGGGCCAGGCAGGCAUCAAAAGAAAUAGUCUUGCGCUCAACCAGAAAGUCUGUAAUCAUUUUAGGGGUA [U49C A135G] | 1.97 |
| GUUAACGGUCAUAGGCCAUGGAAACUAGGAGCACCAUUUCGCUGCCAGCGAAGAGAUGAACAAAGAAAAUCUGGGCCAGGCAGGCAUCAAAAGAAAUAGUCUUGCGCUCAACCAGAAAGUCUGUAAUCAUUUUAAGGGUA [U49C A55G] | 1.22 |
| GUUAACGGUCAUAGGCCAUGGAAACUAGGAGCACCAUUUCGCUGCCAGCGAAGAAAUGAACAAAGAAGAUCUGGGCCAGGCAGGCAUCAAAAGAAAUAGUCUUGCGCUCAACCAGAAAGUCUGUAAUCAUUUUAAGGGUA [U49C A68G] | 1.55 |
| GUUAACGGUCAUAGGCCAUGGAAACUAGGAGCACCAUUUCGCUGCCAGCGAAGAAAUGAACAAAGAAAAUCUGGGCCAGGCAGGGAUCAAAAGAAAUAGUCUUGCGCUCAACCAGAAAGUCUGUAAUCAUUUUAAGGGUA [U49C C85G] | 1.62 |
| GUUAACGGUCAUAGGCCAUGGAAACUAGGAGCACCAUUUCGCUGCCAGCUAAGAAAUGAACAAAGAAAAUCUGGGCCAGGCAGGCAUCAAAAGAAAUAGUCUUGCGCUCAACCAGAAAGUCUGUAAUCAUUUUAAGGGUA [U49C G50U] | 2.22 |
| GUUAACGGUCAUAGGCCAUGGAAACUAGGAGCACCAUUUCGCUGCCAGCGAAGAAAUGAACAAAGAAAAUCUGGGCCAGGCAGGCAUCACAAGAAAUAGUCUUGCGCUCAACCAGAAAGUCUGUAAUCAUUUUAAGGGUA [U49C A90C] | 0.97 |
| GUUAACGGUCAUAGGCCAUGGAAACUAGGAGCACCAUUUCGCUGCCAGCGAAGAAAUGAACAAAGAAAAUCUGGGCCAGGCAGGCAUCAAAAGAAAUAGUCUUGCGCUCAACCAGAAAGUCUGUAAUCAUUUUGAGGGUA [U49C A134G] | 1.38 |
| GUUAACGGUCAUAGGCCAUGGAAACUAGGAGCACCAUUUCGCUGCCAGCGAAGAAAUGAACAAAGAAAAUCUAGGCCAGGCAGGCAUCAAAAGAAAUAGUCUUGCGCUCAACCAGAAAGUCUGUAAUCAUUUUAAGGGUA [U49C G73A] | 0.28 |
| GUUAACGGUCAUAGGCCAUGGAAACUAGGAGCACCAUUUCGCUGCCAGCGAAGAAAUGAACAAAGAAAAUCUGGGCCAGGCAGGCAUCAAAUGAAAUAGUCUUGCGCUCAACCAGAAAGUCUGUAAUCAUUUUAAGGGUA [U49C A92U] | 1.42 |
| GUUAACGGUCAUAGGCCAUGGAAACUAGGAGCACCAUUUCGCUGCCAGCGAAGAAAUGAACAAAGAAAAUCUGGGCCAGGCAGGCAUCAAAGGAAAUAGUCUUGCGCUCAACCAGAAAGUCUGUAAUCAUUUUAAGGGUA [U49C A92G] | 1.47 |
